{
  "source": "patent US10208290B2",
  "about": "“Virion display array for profiling functions and interactions of human membrane proteins” (THE JOHNS HOPKINS UNIVERSITY, priority 2013, dated 2019)",
  "key": {"[1]": {"biological_target": "T1, GPR77 (Homo sapiens, UniProt Q9P296)", "T1 construct": "gB:CD4 and gB:GPR77, express the full-length human membrane proteins at the gB locus under the control of native gB promoter; made in house; host or cells: HFT cells (telomerase-immortalised human foreskin fibroblasts) infected with recombinant HSV-1; purified extracellular virions", "T1 sequence (Q9P296 whole entry)": "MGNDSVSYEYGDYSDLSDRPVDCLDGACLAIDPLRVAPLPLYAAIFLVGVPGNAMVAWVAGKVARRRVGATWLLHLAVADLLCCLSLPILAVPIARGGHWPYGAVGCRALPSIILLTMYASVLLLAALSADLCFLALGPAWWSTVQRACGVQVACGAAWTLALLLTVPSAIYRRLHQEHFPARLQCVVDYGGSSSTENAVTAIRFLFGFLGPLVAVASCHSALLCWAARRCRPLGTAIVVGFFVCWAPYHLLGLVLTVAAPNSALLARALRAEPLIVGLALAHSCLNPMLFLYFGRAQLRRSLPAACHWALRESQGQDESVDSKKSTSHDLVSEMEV", "assay": "Ligand binding assay on VirD Array", "details": "C5a at 1 μM, gB:GPR77 virions on VirD Array", "procedure": "(§1) Ligand binding assay on VirD Array. The VirD Array was blocked in TBST with 1% BSA for 1 h at room temperature with gentle shaking. C5a (Abcam) was labeled with Cy5 NHS Easter (GE Healthcare) and incubated on the VirD Array at 1 μM in ligand binding buffer (1 mM MgCl2, 2 mM CalCl2, 0.2% BSA, and 25 mM HEPES, pH 7.4) at room temperature for 1 h with gentle shaking. The array was washed for […] in ice-cold washing buffer (0.5 M NaCl in 10 mM HEPES, pH 7.4) for 3 times with shaking, dried by spinning, and scanned as described above."}, "[2]": {"test_system": "GPR77", "assay": "Ligand binding assay on VirD Array", "parameters": "species or system human", "details": "C5a at 1 μM", "procedure": "as §1"}},
  "data": [
    {"molecule": "C5a: complement anaphylatoxin C5a, canonical ligand of GPR77 (Abcam), labeled with Cy5 (protein) TLQKKIEEIAAKYKHSVVKKCCYDGACVNNDETCEQRAARISLGPRCIKAFTECCVVASQLRANISHKDMQLGR", "values": [
      {"measurement": "binding of Cy5-labeled C5a to gB:GPR77 virions", "setting": "[1]", "value": "weaker binding signals"},
      {"measurement": "binding of Cy5-labeled C5a to GPR77-gC virions", "setting": "[2]; GPR77-gC virions on VirD Array", "value": "strong binding activity"},
      {"measurement": "binding of Cy5-labeled C5a to other virions", "setting": "[2]; other virions on VirD Array (specificity)", "value": "no detectable signals"}
    ]}
  ]
}
